Assay results: the supplement of paper PMC9732359
± gives the uncertainty stated by the source.

Assay: protein stability index of a GFP-peptide fusion (yeast GPS) (PSI 1-4); higher = more stable; sorted into four equal gates, so the index is relative within each strain
Summary of the method: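 Plasmids in a pooled yeast library fused tiled 17-residue yeast protein peptides downstream of GFP and also expressed Cherry. Mid-log cultures grown without leucine were sorted into four equal gates by GFP/Cherry fluorescence ratio. Each gate's plasmids were PCR-amplified and Illumina-sequenced, and reads were matched to strains by barcodes. The protein stability index is derived by multiplying each gate's read frequency by its gate number and summing the results.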

## RSNFRVNLSQEALQYDP [SNU114]
doa10∆
  protein stability index: 2.69 ± 0.074
pdr5∆
  protein stability index: 2.31 ± 0.09
san1∆
  protein stability index: 2.93 ± 0.047
ubr1∆
  protein stability index: 3.1 ± 0.088

## KLTRELEKKFQDRHVIF [RPS7A]
doa10∆
  protein stability index: 3.08 ± 0.14
pdr5∆
  protein stability index: 3.5 ± 0.18
san1∆
  protein stability index: 3.09 ± 0.086
ubr1∆
  protein stability index: 3.18 ± 0.1

## LVSDSEIIDLNLHSFTK [POP6]
doa10∆
  protein stability index: 2.62 ± 0.072
pdr5∆
  protein stability index: 2.81 ± 0.069
san1∆
  protein stability index: 2.31 ± 0.07
ubr1∆
  protein stability index: 2.71 ± 0.048

## VYVTGGRNLGRIGTIVH [RPS4A]
doa10∆
  protein stability index: 3.02 ± 0.21
pdr5∆
  protein stability index: 2.8 ± 0.18
san1∆
  protein stability index: 3.18 ± 0.084
ubr1∆
  protein stability index: 3.4 ± 0.13

## TGNIKHEDLVNSIESKN [COR1]
doa10∆
  protein stability index: 3.13 ± 0.093
pdr5∆
  protein stability index: 2.99 ± 0.11
san1∆
  protein stability index: 3.2 ± 0.075
ubr1∆
  protein stability index: 2.96 ± 0.087

## TQKRLAASVVGVGKRKV [RPL19A]
doa10∆
  protein stability index: 1.33 ± 0.1
pdr5∆
  protein stability index: 1.32 ± 0.16
san1∆
  protein stability index: 1.13 ± 0.11
ubr1∆
  protein stability index: 1.79 ± 0.11

## QNKEIKAERVEDQKVVD [RPL6A]
doa10∆
  protein stability index: 3.4 ± 0.067
pdr5∆
  protein stability index: 3.44 ± 0.066
san1∆
  protein stability index: 3.33 ± 0.041
ubr1∆
  protein stability index: 3.35 ± 0.052

## MGEAQTGANFDDVERGV [REC8]
doa10∆
  protein stability index: 3.37 ± 0.093
pdr5∆
  protein stability index: 2.98 ± 0.11
san1∆
  protein stability index: 3.52 ± 0.17
ubr1∆
  protein stability index: 3.24 ± 0.081

## YYNEISRDLDISSSTQC [POP6]
doa10∆
  protein stability index: 1.95 ± 0.091
pdr5∆
  protein stability index: 2.56 ± 0.073
san1∆
  protein stability index: 2.25 ± 0.093
ubr1∆
  protein stability index: 2.3 ± 0.043

## KSIENPTQTKGNDAKPA [YLR335W/NUP2]
doa10∆
  protein stability index: 3.12 ± 0.075
pdr5∆
  protein stability index: 3.24 ± 0.058
san1∆
  protein stability index: 3.23 ± 0.046
ubr1∆
  protein stability index: 2.94 ± 0.055

## AGGAADCQFWETWLGSQ [PRE2]
doa10∆
  protein stability index: 3.19 ± 0.18
pdr5∆
  protein stability index: 3.19 ± 0.15
san1∆
  protein stability index: 2.97 ± 0.09
ubr1∆
  protein stability index: 3.77 ± 0.13

## NVSSNIVKNAEQHNLVK [RPS20]
doa10∆
  protein stability index: 2.81 ± 0.066
pdr5∆
  protein stability index: 3.17 ± 0.057
san1∆
  protein stability index: 3.26 ± 0.046
ubr1∆
  protein stability index: 3.07 ± 0.061

## ADVFTDDDLFETLVLSY [YCG1]
doa10∆
  protein stability index: 2.46 ± 0.09
pdr5∆
  protein stability index: 2.65 ± 0.056
san1∆
  protein stability index: 2.85 ± 0.064
ubr1∆
  protein stability index: 2.06 ± 0.041

## HSSSVFKGTDFVHSVKK [SRB4]
doa10∆
  protein stability index: 2.75 ± 0.073
pdr5∆
  protein stability index: 2.93 ± 0.074
san1∆
  protein stability index: 3.15 ± 0.048
ubr1∆
  protein stability index: 2.99 ± 0.056

## WEISNPDFLSKYSAITS [NUT1]
doa10∆
  protein stability index: 1.54 ± 0.045
pdr5∆
  protein stability index: 2.06 ± 0.044
san1∆
  protein stability index: 1.51 ± 0.073
ubr1∆
  protein stability index: 1.59 ± 0.041

## GTLGEIFIRCNNVLYIR [SMX3]
doa10∆
  protein stability index: 3.57 ± 0.21
pdr5∆
  protein stability index: 3.27 ± 0.1
san1∆
  protein stability index: 2.9 ± 0.1
ubr1∆
  protein stability index: 3.26 ± 0.1

## LNCCGSVARVEDHDVHS [IRR1]
doa10∆
  protein stability index: 1.98 ± 0.079
pdr5∆
  protein stability index: 2.49 ± 0.065
san1∆
  protein stability index: 2.41 ± 0.068
ubr1∆
  protein stability index: 2.45 ± 0.06

## GNNKDLKNTMQYLTNFS [RPB4]
doa10∆
  protein stability index: 3.16 ± 0.08
pdr5∆
  protein stability index: 3.02 ± 0.072
san1∆
  protein stability index: 3.02 ± 0.075
ubr1∆
  protein stability index: 3.13 ± 0.061

## KDKFNQIPLHRAASVGS [NAS6]
doa10∆
  protein stability index: 1.81 ± 0.074
pdr5∆
  protein stability index: 2.13 ± 0.079
san1∆
  protein stability index: 2.05 ± 0.15
ubr1∆
  protein stability index: 2.26 ± 0.082

## FENCYLEGNDIHALAAK [FAS1]
doa10∆
  protein stability index: 2.83 ± 0.053
pdr5∆
  protein stability index: 3.06 ± 0.049
san1∆
  protein stability index: 2.88 ± 0.044
ubr1∆
  protein stability index: 2.69 ± 0.041

## GAKYVIRDSGDRIDLRY [RPO21]
doa10∆
  protein stability index: 3.23 ± 0.16
pdr5∆
  protein stability index: 3.31 ± 0.15
ubr1∆
  protein stability index: 3.45 ± 0.13

## EENGDSIKEHSTTMDGA [MED1]
doa10∆
  protein stability index: 3.32 ± 0.19
san1∆
  protein stability index: 3.21 ± 0.14
ubr1∆
  protein stability index: 3.57 ± 0.14

## QPKDLRAKKTRALRRAL [RPL35A]
ubr1∆
  protein stability index: 3.1 ± 0.15

## NFEKILLTCYELEKKYH [SRB8]
doa10∆
  protein stability index: 1.98 ± 0.1
pdr5∆
  protein stability index: 2.34 ± 0.1
ubr1∆
  protein stability index: 3.71 ± 0.21

## VLRKQKRYTVKKALAKA [RPL14A]
doa10∆
  protein stability index: 2.08 ± 0.14
pdr5∆
  protein stability index: 2.14 ± 0.1
ubr1∆
  protein stability index: 1.55 ± 0.19

## QTKSNGTAGGNTFGSSS [YJL041W/NSP1]
doa10∆
  protein stability index: 3.28 ± 0.063
pdr5∆
  protein stability index: 2.84 ± 0.064
san1∆
  protein stability index: 2.96 ± 0.055
ubr1∆
  protein stability index: 3.22 ± 0.053

## SNTVNANNYSSNIGNNS [YDL088C/ASM4]
doa10∆
  protein stability index: 3.17 ± 0.14
pdr5∆
  protein stability index: 3.39 ± 0.14
san1∆
  protein stability index: 3.33 ± 0.12
ubr1∆
  protein stability index: 3.19 ± 0.066

## ECGTGTTIHTFNRKENP [RPN14]
doa10∆
  protein stability index: 2.11 ± 0.18
pdr5∆
  protein stability index: 2.5 ± 0.1
san1∆
  protein stability index: 2.21 ± 0.12
ubr1∆
  protein stability index: 2.05 ± 0.13

## ETTIDDLPISSTDNEAI [SMC1]
doa10∆
  protein stability index: 2.67 ± 0.069
pdr5∆
  protein stability index: 2.7 ± 0.087
san1∆
  protein stability index: 2.66 ± 0.053
ubr1∆
  protein stability index: 2.97 ± 0.058

## VAEGKSKQDASPKPYAV [RPL8A]
doa10∆
  protein stability index: 3.04 ± 0.12
pdr5∆
  protein stability index: 3.29 ± 0.059
san1∆
  protein stability index: 3.04 ± 0.07
ubr1∆
  protein stability index: 3.02 ± 0.058

## GEALPNKFHKSIREDIL [SIR2]
doa10∆
  protein stability index: 3.16 ± 0.14
pdr5∆
  protein stability index: 3.04 ± 0.11
san1∆
  protein stability index: 2.7 ± 0.096
ubr1∆
  protein stability index: 2.76 ± 0.07

## EATSNTNSEDKLSKVQL [MED4]
doa10∆
  protein stability index: 2.82 ± 0.13
pdr5∆
  protein stability index: 2.92 ± 0.071
san1∆
  protein stability index: 2.77 ± 0.087
ubr1∆
  protein stability index: 2.93 ± 0.075

## GEILLPDIADIPRTFRT [SNF5]
doa10∆
  protein stability index: 2.82 ± 0.14
pdr5∆
  protein stability index: 3.18 ± 0.12
san1∆
  protein stability index: 3.19 ± 0.12
ubr1∆
  protein stability index: 3.05 ± 0.1

## MKLDDSSKTRNVLNRIQ [ITC1]
doa10∆
  protein stability index: 1.78 ± 0.082
pdr5∆
  protein stability index: 1.3 ± 0.051
san1∆
  protein stability index: 2.71 ± 0.12
ubr1∆
  protein stability index: 1.38 ± 0.056

## LPKYKEKKAASAKQTAP [MED7]
doa10∆
  protein stability index: 2.71 ± 0.095
pdr5∆
  protein stability index: 2.97 ± 0.078
san1∆
  protein stability index: 2.74 ± 0.056
ubr1∆
  protein stability index: 2.61 ± 0.066

## LLCALDRKDQDDRDHFG [RPB2]
doa10∆
  protein stability index: 3.22 ± 0.096
pdr5∆
  protein stability index: 3.28 ± 0.067
san1∆
  protein stability index: 2.71 ± 0.1
ubr1∆
  protein stability index: 3.47 ± 0.05

## LSATGTRSAKKMVIAEL [YJR042W/NUP85]
san1∆
  protein stability index: 2.97 ± 0.15

## YRKTEGIFEKAKAKAVT [YMR153W/NUP53]
doa10∆
  protein stability index: 2.56 ± 0.09
pdr5∆
  protein stability index: 2.54 ± 0.12
san1∆
  protein stability index: 2.65 ± 0.13
ubr1∆
  protein stability index: 2.48 ± 0.075

## QEEEGELEHLTKKSKLE [DSN1]
doa10∆
  protein stability index: 3.02 ± 0.053
pdr5∆
  protein stability index: 3.17 ± 0.056
san1∆
  protein stability index: 3.14 ± 0.043
ubr1∆
  protein stability index: 3.18 ± 0.043

## STKTGTPSDLSESGSKL [POP1]
doa10∆
  protein stability index: 3.4 ± 0.1
pdr5∆
  protein stability index: 3.35 ± 0.088
san1∆
  protein stability index: 3.24 ± 0.055
ubr1∆
  protein stability index: 3.35 ± 0.048

## TKHPSLKTLTHKQIHTT [POP7]
doa10∆
  protein stability index: 2.21 ± 0.039
pdr5∆
  protein stability index: 2.4 ± 0.04
san1∆
  protein stability index: 2.21 ± 0.05
ubr1∆
  protein stability index: 2.48 ± 0.04

## EKDASGKPSFVFGASDK [YOR098C/NUP1]
doa10∆
  protein stability index: 2.63 ± 0.067
pdr5∆
  protein stability index: 2.52 ± 0.065
san1∆
  protein stability index: 2.98 ± 0.076
ubr1∆
  protein stability index: 2.37 ± 0.074

## QENSSKIITLDLSNYAE [SMC1]
doa10∆
  protein stability index: 3.13 ± 0.1
pdr5∆
  protein stability index: 3.34 ± 0.053
san1∆
  protein stability index: 3.1 ± 0.054
ubr1∆
  protein stability index: 3.13 ± 0.044

## FDKVIYHLHPTFANPNR [TAF14]
doa10∆
  protein stability index: 1.49 ± 0.091
pdr5∆
  protein stability index: 1.44 ± 0.064
san1∆
  protein stability index: 1.43 ± 0.22
ubr1∆
  protein stability index: 1.19 ± 0.057

## LSNEFTATNSKGEQIAI [ECM29]
doa10∆
  protein stability index: 3.06 ± 0.11
pdr5∆
  protein stability index: 3.25 ± 0.12
san1∆
  protein stability index: 2.91 ± 0.18
ubr1∆
  protein stability index: 3.26 ± 0.11

## TVNGQARDLATMTYEEV [FAS1]
doa10∆
  protein stability index: 2.96 ± 0.08
pdr5∆
  protein stability index: 3.15 ± 0.056
san1∆
  protein stability index: 3.03 ± 0.065
ubr1∆
  protein stability index: 2.95 ± 0.045

## IAIIKDTSDIIVDPTAE [RRP46]
doa10∆
  protein stability index: 1.86 ± 0.044
pdr5∆
  protein stability index: 1.92 ± 0.047
san1∆
  protein stability index: 1.71 ± 0.078
ubr1∆
  protein stability index: 1.61 ± 0.046

## LIIKYQKYWESMRIQIL [GAL11]
doa10∆
  protein stability index: 1.49 ± 0.064
pdr5∆
  protein stability index: 1.95 ± 0.076
san1∆
  protein stability index: 1.71 ± 0.087
ubr1∆
  protein stability index: 1.65 ± 0.06

## EINYAFSMDEEFKNMDC [SIR3]
doa10∆
  protein stability index: 3.09 ± 0.068
pdr5∆
  protein stability index: 3.14 ± 0.053
san1∆
  protein stability index: 3.22 ± 0.04
ubr1∆
  protein stability index: 3.25 ± 0.048

## TQDESEIKDAETSCDNY [SMC4]
doa10∆
  protein stability index: 2.26 ± 0.083
pdr5∆
  protein stability index: 2.62 ± 0.073
san1∆
  protein stability index: 3.4 ± 0.056
ubr1∆
  protein stability index: 2.98 ± 0.053

## KLNKKLQHLRSRCHLVT [SRP68]
doa10∆
  protein stability index: 3.23 ± 0.11
pdr5∆
  protein stability index: 3.34 ± 0.09
san1∆
  protein stability index: 3.3 ± 0.039
ubr1∆
  protein stability index: 3.27 ± 0.077
